Experimental data from patent publication US9187525B2, “Methods of treating ophthalmic diseases using NPR-B agonists” (Shire Orphan Therapies GmbH, dated 2015).
Numbered stars: 1 amine (or outer) side, 2 acyl side, 3 side chain; on linkers, the order of the positions; unused ones are H or OH. Square brackets hold non-standard residues; d marks the D form. Ends that are not written are not given here. * marks the point of attachment. AFL = (S)-2-((S)-3-amino-2-oxopyrrolidin-1-yl)-3-phenylpropanoic acid, O=C1[C@@H](N[*:1])CCN1[C@@H](Cc1ccccc1)C(=O)[*:2]; aFL = (S)-2-((R)-3-amino-2-oxopyrrolidin-1-yl)-3-phenylpropanoic acid, O=C1[C@H](N[*:1])CCN1[C@@H](Cc1ccccc1)C(=O)[*:2]; afL = (R)-2-((R)-3-amino-2-oxopyrrolidin-1-yl)-3-phenylpropanoic acid, O=C1[C@H](N[*:1])CCN1[C@H](Cc1ccccc1)C(=O)[*:2]; Tap(Ae) = (2S,4R)-4-(2-aminoethylamino)pyrrolidine-2-carboxylic acid, O=C([C@@H]1C[C@@H](NCCN[*:3])CN1[*:1])[*:2]; Pca = (2S,3R)-3-aminopyrrolidine-2-carboxylic acid, O=C([C@@H]1[C@H](N[*:3])CCN1[*:1])[*:2]; 779 = 2-((1S,2R,4R)-bicyclo[2.2.1]heptan-2-yl)acetic acid, O=C(C[C@H]1C[C@@H]2CC[C@H]1C2)*; Eal = rac-imidazolidine-2-carboxylic acid, O=C(C1N([*:1])CCN1[*:3])[*:2]; 3218 = (S)-2-cyclopentylhexanoic acid, CCCC[C@H](C(=O)*)C1CCCC1; Pro(trans-4-NH2) = O=C([C@@H]1C[C@@H](N[*:3])CN1[*:1])[*:2]; 785 = 2-phenethyl-benzoic acid, O=C(c1ccccc1CCc1ccccc1)*; Sni = (S)-nipecotic acid, O=C([C@H]1CCCN([*:1])C1)[*:2]; 6013 = (2-butoxy-ethoxy)-acetic acid, CCCCOCCOCC(=O)*; Gly(2-thienyl) = N[C@H](C(=O)O)c1cccs1; Propanoyl(3-cHex) = O=C(CCC1CCCCC1)*; Hydrocinnamoyl = O=C(CCc1ccccc1)*; Hyp = O=C(O)[C@@H]1C[C@@H](O)CN1; ES‑283‑049 = not defined here; NMeL = CN[C@@H](CC(C)C)C(=O)O; Decanoyl = CCCCCCCCCC(=O)*; Nle = CCCC[C@H](N)C(=O)O; Octanoyl = CCCCCCCC(=O)*; Thz = O=C(O)[C@@H]1CSCN1; Api = NC1(C(=O)O)CCNCC1; Che = not defined here; leu = not defined here; NP = not defined here; Occ = octanoic acid

T1: natriuretic peptide receptor-B (human)
T1 chain: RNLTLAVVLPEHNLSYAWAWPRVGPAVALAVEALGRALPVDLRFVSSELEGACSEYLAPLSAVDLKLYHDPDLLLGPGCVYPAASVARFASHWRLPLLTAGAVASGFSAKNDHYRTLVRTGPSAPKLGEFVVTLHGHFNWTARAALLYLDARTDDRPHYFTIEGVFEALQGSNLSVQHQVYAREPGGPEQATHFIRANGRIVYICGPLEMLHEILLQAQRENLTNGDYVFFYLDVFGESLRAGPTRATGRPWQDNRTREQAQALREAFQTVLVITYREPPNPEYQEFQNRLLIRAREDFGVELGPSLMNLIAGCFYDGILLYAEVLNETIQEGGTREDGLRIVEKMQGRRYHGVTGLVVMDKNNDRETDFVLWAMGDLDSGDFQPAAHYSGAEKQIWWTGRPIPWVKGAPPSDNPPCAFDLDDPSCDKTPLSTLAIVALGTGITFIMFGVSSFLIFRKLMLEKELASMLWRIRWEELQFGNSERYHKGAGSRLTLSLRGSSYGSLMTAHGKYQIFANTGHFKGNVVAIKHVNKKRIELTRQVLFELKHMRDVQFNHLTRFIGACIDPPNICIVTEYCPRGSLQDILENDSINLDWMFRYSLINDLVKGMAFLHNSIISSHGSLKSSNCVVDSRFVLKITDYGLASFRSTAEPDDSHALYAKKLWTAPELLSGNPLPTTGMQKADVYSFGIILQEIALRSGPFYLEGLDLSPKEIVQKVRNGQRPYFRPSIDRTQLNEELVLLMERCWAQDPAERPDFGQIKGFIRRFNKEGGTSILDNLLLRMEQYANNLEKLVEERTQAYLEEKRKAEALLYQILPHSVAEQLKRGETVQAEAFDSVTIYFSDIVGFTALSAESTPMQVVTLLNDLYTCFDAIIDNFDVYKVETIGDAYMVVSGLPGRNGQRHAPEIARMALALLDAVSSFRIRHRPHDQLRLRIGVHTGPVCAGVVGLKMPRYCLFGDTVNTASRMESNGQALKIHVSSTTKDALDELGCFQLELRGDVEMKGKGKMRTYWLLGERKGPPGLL


Target: T1, natriuretic peptide receptor-B
Assay: cell-based or functional assay

Binder	EC50 group, cGMP in GTM-3 cells [µM]
{Propanoyl(3-cHex)}-[dA][dA]FGLKLDRI-NH2 [JAL-0703]	≤ 15
[Occ][Sni]F[dL]L[Hyp][NMeL]D[Pca][Che] (reading uncertain; also: printed as Occ-Sni-Phe-leu-Leu-Hyp-Nml-Asp-Pca-Che) [JAL-1679]	≤ 1
[Occ][Sni]F[leu]L[Hyp][NMeL]D[Thz][Che] (reading uncertain; also: printed as Occ-Sni-Phe-leu-Leu-Hyp-Nml-Asp-Eaz-Che) [JAL-1638]	≤ 1
[Decanoyl][Sni]F[leu]L[Hyp][NMeL]DRI-NH2 (reading uncertain; also: printed as 5587-Sni-Phe-leu-Leu-Hyp-Nml-Asp-Arg-Ile-NH2) [JAL-1666]	≤ 1
[785][Sni]F[leu]L[Hyp][NMeL]DRI-NH2 (reading uncertain; also: printed as 785-Sni-Phe-leu-Leu-Hyp-Nml-Asp-Arg-Ile-NH2) [JAL-1660]	≤ 15
[Occ][Sni]F[dL]L[Hyp][NMeL][NP][Che] (reading uncertain; also: printed as Occ-Sni-Phe-leu-Leu-Hyp-Nml-NP-Che) [JAL-1673]	≤ 15
[3218][Sni]F[leu]L[Hyp][NMeL]DRI-NH2 (reading uncertain; also: printed as 3218-Sni-Phe-leu-Leu-Hyp-Nml-Asp-Arg-Ile-NH2) [JAL-1664]	≤ 15
[6013][Sni]F[leu]L[Hyp][NMeL]DRI-NH2 (reading uncertain; also: printed as 6013-Sni-Phe-leu-Leu-Hyp-Nml-Asp-Arg-Ile-NH2) [JAL-1665]	≤ 5
[Occ][AFL][dL]L[Hyp][NMeL]DRI-NH2 [JAL-1671]	≤ 1
XGXFLLXXDRI (HELM PEPTIDE1{[O=C(CCc1ccccc1)[*:2]].G.[O=C([C@H]1CCCN([*:1])C1)[*:2]].F.[dL].L.[Hyp].[meL].D.R.I.[am]}$$$$V2.0; SMILES CC[C@H](C)[C@H](NC(=O)[C@H](CCCNC(=N)N)NC(=O)[C@H](CC(=O)O)NC(=O)[C@H](CC(C)C)N(C)C(=O)[C@@H]1C[C@@H](O)CN1C(=O)[C@H](CC(C)C)NC(=O)[C@@H](CC(C)C)NC(=O)[C@H](Cc1ccccc1)NC(=O)[C@H]1CCCN(C(=O)CNC(=O)CCc2ccccc2)C1)C(N)=O) [JAL-1668]	≤ 15
XXXFLLXXDRI (HELM PEPTIDE1{[O=C(CCc1ccccc1)[*:2]].[bAla].[O=C([C@H]1CCCN([*:1])C1)[*:2]].F.[dL].L.[Hyp].[meL].D.R.I.[am]}$$$$V2.0; SMILES CC[C@H](C)[C@H](NC(=O)[C@H](CCCNC(=N)N)NC(=O)[C@H](CC(=O)O)NC(=O)[C@H](CC(C)C)N(C)C(=O)[C@@H]1C[C@@H](O)CN1C(=O)[C@H](CC(C)C)NC(=O)[C@@H](CC(C)C)NC(=O)[C@H](Cc1ccccc1)NC(=O)[C@H]1CCCN(C(=O)CCNC(=O)CCc2ccccc2)C1)C(N)=O) [JAL-1669]	≤ 15
Octanoyl-[dA][dA]FGLKLDRI-NH2 [JAL-0701]	≤ 5
[Occ][Sni]FLL[Tap(Ae)][NMeL]DR[Che] (not fully specified (residue 4); printed as Occ-Sni-Phe-leu-Leu-Tap(Ae)-Nml-Asp-Arg-Che; reading uncertain) [JAL-1681]	≤ 1
[Occ][Sni]F[dL]L[Pro(trans-4-NH2)][NMeL][Gly(2-thienyl)]P[Che] (reading uncertain; also: printed as Occ-Sni-Phe-leu-Leu-Tap-Nml-(BB726)-Pro-Che) [JAL-1676]	≤ 5
XXFGLKLDRI (HELM PEPTIDE1{[CCCCCC(=O)[*:2]].[O=C(c1nc(N[*:1])cs1)[*:2]].F.G.L.K.L.D.R.I.[am]}$$$$V2.0; SMILES CCCCCC(=O)Nc1csc(C(=O)N[C@@H](Cc2ccccc2)C(=O)NCC(=O)N[C@@H](CC(C)C)C(=O)N[C@@H](CCCCN)C(=O)N[C@@H](CC(C)C)C(=O)N[C@@H](CC(=O)O)C(=O)N[C@@H](CCCNC(=N)N)C(=O)N[C@H](C(N)=O)[C@@H](C)CC)n1) [JAL-0713]	≤ 15
[Occ][Sni]F[dL]L[Hyp][NMeL]DR[Che] (reading uncertain; also: printed as Occ-Sni-Phe-leu-Leu-Hyp-Nml-Asp-Arg-Che) [JAL-1680]	≤ 1
[Occ][Sni]F[leu]L[Hyp][NMeL]EP[Che] (reading uncertain; also: printed as Occ-Sni-Phe-leu-Leu-Hyp-Nml-Glu-Pro-Che) [JAL-1652]	≤ 5
[Occ][Sni]F[leu][Nle][Hyp][NMeL]DP[Che] (reading uncertain; also: printed as Occ-Sni-Phe-leu-Nle-Hyp-Nml-Asp-Pro-Che) [JAL-1657]	≤ 1
[Occ][aFL][leu]L[Hyp][NMeL]DRI-NH2 (reading uncertain; also: printed as Occ-(aFL)-leu-Leu-Hyp-Nml-Asp-Arg-Ile-NH2) [JAL-1636]	≤ 5
[779][Sni]F[leu]L[Hyp][NMeL]DRI-NH2 (reading uncertain; also: printed as 779-Sni-Phe-leu-Leu-Hyp-Nml-Asp-Arg-Ile-NH2) [JAL-1659]	≤ 5
[Occ][Sni]F[leu]L[Hyp][NMeL]D[ES‑283‑049] (reading uncertain; also: printed as Occ-Sni-Phe-leu-Leu-Hyp-Nml-Asp-(ES-283-049)) [JAL-1646]	≤ 5
[Occ][afL][leu]L[Hyp][NMeL]DRI-NH2 (reading uncertain; also: printed as Occ-(afL)-leu-Leu-Hyp-Nml-Asp-Arg-Ile-NH2) [JAL-1637]	≤ 5
[Hydrocinnamoyl][Sni]F[leu]L[Hyp][NMeL]DRI-NH2 (reading uncertain; also: printed as 1281-Sni-Phe-leu-Leu-Hyp-Nml-Asp-Arg-Ile-NH2) [JAL-1661]	≤ 5
[Occ][Sni]F[leu]L[Pro(trans-4-NH2)][NMeL]VP[Che] (reading uncertain; also: printed as Occ-Sni-Phe-leu-Leu-Tap-Nml-Val-Pro-Che) [JAL-1654]	≤ 1
[Occ][Sni]F[leu]L[Hyp][NMeL]D[Eal][Che] (reading uncertain; also: printed as Occ-Sni-Phe-leu-Leu-Hyp-Nml-Asp-Eal-Che) [JAL-1639]	≤ 5
[Occ][Sni]F[dL]L[Hyp][NMeL]D[Api][Che] (reading uncertain; also: printed as Occ-Sni-Phe-leu-Leu-Hyp-Nml-Asp-Apc-Che) [JAL-1672]	≤ 15
